Reference: a protein production outcome set (Wang et al. 2014)

Assay: label from the status in PepcDB records
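Also: failed if final PepcDB status was selected cloned or expressed and not failed if soluble or beyond.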

In the case of “MTIAILSTGDEIIHGDTLNTNAHYIAHALCSEGLPLGLQVACSDKENEIIDSLNFLTQHHDILILIGGLGPTKDDITRFALAKFTKEPLLQHADALDHIEKKANIAKISLNQGNLQQCLFPANARLFPNPYGTAMGCSYSWKGKVFILLPGPPRECLPMFNQDVLPLLLQTSRHSNK”, the protein production is reported as “not failed”.
In the case of “MEADRGRNNKVRCAVVDTNVLMYVYLNKADVVGQLREFGFSRFLITASVKRELEKLEMSLRGKEKVAARFALKLLEHFEVVETESEGDPSLIEAAEKYGCILITNDKELKRKAKQRGIPVGYLKEDKRVFVELLD”, the protein production is reported as “not failed”.
For “MQFLGRSISKSIRPSLNSTARKSWVLSSQQFLSTSSTESSSRTRGGGGGNRAEKSSEEWPRPMEVPYQPKIANSIDLIGYVHQPVQFDSTLDGKFWAGTVISHEPSSDSKSESDSSSNFWIPVLFEGDLAHTANSYLKKNDRVHITGQILGDVIQSGANSDQAHVQLFKSFHGSFSHQVMVRDLHYIEGSKAMPKVLPTLDQNEGVLKHSASVQRGREFGTNLWFDLVDKPNEWCDYREMKQNGSVNPKHPDFKKKDGSQALWLNNAPTEILSELKDVKFDIPKYAKQPKAGEESWKDLVDNMNKWWDNRVDKRTPKSPDFKHKETGVGLWLSDSPSWVLEKLPPPKSKTSDIYGVQEMF”, the protein production was “failed”.
For “MKLFSSGRKTPTSSPASSHAGAMDETVGVTSTSEAANVATQPVPTPVEDVPNGVRTAAGWCWRMIVIAAFIYGLYQVLHAASEVSVPVAVALMLTAAMWPLANWLSRHHIHRGIASGICLLLLVILVGGVFTLVGAQIALQWRQLGDQSVASFKQALQWLAKSPLHTNEAQLTHLMQKAEAAMAGSQGRIASTAAAAGSQIGRFGAGLVMALFATFFFVYEGDKLAEKSAVLIPREHRAAILDAAKRGWVALVAYVRAAVIVAFVDGLGAGIGAAIIGSSMSVAIGALTFILAFVPIVGALTAGVVAVGVVLVTLGFFKAFIMLIVFVAVMQIEGHVLQPFLLGKAVSIHPLIVLLGIAVGAIISGIVGALFAIPIVAFGVAFIKALNPETPANEVPPNHDDLAAEHT”, the protein production was “failed”.
For “MGLVIYDTLARRKVPFEPAVPGHVGIYVCGPTVYADPHLGHARGPVVYDVLRRYLLHKGYKVRFVSNITDVGHLTDDADEGEDKIVRRAKLERLEPMEVAEKYTWSYFDAMQALNVLRPSIAPRASGHIPEMLELTERLLARGVAYERKGSVYFRVRSFPEYGKLSGKRLEELRAGARVEVREEKEDPLDFALWKAAEPGHIMRWKSPWGEGYPGWHIECTAMSLKYLGEGFDLHAGGIDLQFPHHECEIAQAEAAGFRFARHWMHHNHVLLEGEKMAKSTGNLVLLHDLLEAHEPMALRFYLLQTHYRSPMDFTWEGLESAKRGYGRLLHAYREVRGRKKTAPPGTTPELERALDALEKAFMEAIEDDLSTPEALAALFAFLPELHKLLPEAKAESLARAEAVFHTLGEGILGLFPERVLEERVSGPLLEGLIALLLELREEARRAKDYEKSDLIRERLRALGVIVEDTKEGPRWRLER”, the protein production was “not failed”.
With “MPKRKNTSIKDYKLKSGKKRYMFQIYLGTNSNGKPIITRRRGFKSYAEAEAVFNKMSQIKPDNFVKQKQIKVAELRELWFENYKTQVKESTANKNKQVFDNHVIPAFGNQYIDKITVAELQKWADRKAKQIVKYRDAINEFNALFEYGIRLNYVSENPLKRIIIPKKTSRPRRDTEHNVYTQDELNQFLEVAKDYGLVPYTYFKLLSATGLRKSEALALTWSDINLTAGTLSVNKTLAYGLNGKTIIQPPKSPKSKRILPISDGLKEVLIDYKRKQKIISKELFHTNKGTYLRISKPDQWLKSIYAKDHEEKAEYAKKYNLKEPQPDLRHITVHGFRHTFATLLIAETNVKPKTVQMLLGHENIQMTLDIYTHINKKNTEDAVNALKQLNI” the protein production was “failed”.
For “MFTGFGAASFSAPAKAAAQTNTLSENTNQSAAELVKNLYNTAYKGEMPQQAQGLTINKSTKGDVHAAFGEPERPVGGDNRFDLYHWNMGQPGYGFSYHKDMTISEIRYFGTGVERQLNLGGVTPEVLQKQLGPVNRVLTVPFTDEIDYVYDTGRYELHFVIGTDQTADHVNLKAKLEHHHHHH”, the protein production was “not failed”.
In the case of “MTKSPARLISFISIAIAINLVGANLALFLRLPIYLDTIGTLLIAVILGPWYAASTAFLSALINWMTTDIFSLYYSPVAIVVAIITGILIKRNCKPSSLLWKSLIISLPGTIIASVITVILFKGITSSGSSIIAQFLHGIGLDMTSSLILVQVGTDYMDRLISLILVFSTITLLKKHSPNLINQRF”, the protein production is reported as “failed”.
In the case of “LAPTAQKMSKNYGVLASILLSQAAYESNYGSSLLSVKYHNIYSLPARPGQEHIYLKDNVYSKGKWQYQKVDFAVFRDWSSSMSSYLEELRQGRWGESTYKEVAGTTSYKVAAEKLQAAGFNSDPDYTKHLISIIETYNLVKYDR”, the protein production is reported as “failed”.
With “MSKIWSKEETLWSFALYGTAVGAGTLFLPIQLGSAGAIVLFITALVAWPLTYWPHKALSQFILSANIAPGTGITGAVNHYYGKKIGNLITGLYFLAFFVVVLIYAVAITNSLAEQVAHRTPMTPGLRALLSLGVVLVLNLIFLMGRQVTIKVMGFLVFPLIACFLFLSLYLIRDWHPEHLTSQMQFSPQTLHQVWISIPVMVFAFSHTPIISTFAIDQQEKHGDLAMGKCKKIMKVAYTIICASVLFFVFSCLLAIPATYIETARDQGVTILSALSMVPGAPGWLAVTGIIVAVVAMSKSFLGTYFGVIEGASEIVKSSLGLLGVRKSRAFNRAMSILLVSAFTFAVCFINPNAISMIYAISGPLIAMILFIMPTLSTWLIPALKPYRSVGNAITLVVGLLCVSVMFFG” the protein production was “failed”.
In the case of “AIASNSLEEKKSYFSNRVNLLVENIGTSLRDLLRQGADSSDWNEYAGNLELHLSIENISRDLEELLTLSFEIEVLTLEGNLPQVMSETDGVEAAIQKRIAELNFALEQTGVFSGFSFLYDVNFQQIVEKATRALQKVSDYTPWVLDDGHNM”, the protein production is reported as “failed”.
With “MSRGLLEACIEFIRETPAGDALRIVAYEFTFKRILLELKAALERGVDVRIVYHATTANEKAIADAKLPENSKGVQILFKRTRPQTPHNKFIVRLKKGKTPVSVWTGSTNFTPSGFLGQTNVGHKVTDGDIAKIYLQLWEGLKADPDDFDATQLEHHHHHH” the protein production was “not failed”.
For “MFPQRSSELYRTPVTHQPPPALELAGNLEYPNLNIADLNARLENLSPRLHDCWDSIAINDHNHLALATNRREGRQWWGMLFGYGRDQMHHMSVDSANFKLQAEHTVNIVRYAEDDFLLVALGDTRLQAWSTYSKVRDSQSPYCLFLVGESSAHPTPISQLSVFKADPRTAVSGSADSTLNVWDLSGADMVSTYRSRSSHTDKLTGLATPAASVDKFVTCDRGGCARLWDVRAAAPSSTCLYADASHVLSFTSAAWAAASELQGDNHIYLGDYDGKVHTLDIRVPRKLAETREYFDKGHVAQLLINGPHLAAMSNLPASVKVANVQAGHEFIYTHQDTHSRLTDAVWTDDSTLITIGHGRKMVTHAIK”, the protein production was “failed”.
In the case of “MDIELPGFDIERELGEGAMATVYLATQRSLQRKVALKVMAAALAADPSFAERFLREGRTLARLSHPNTVTIHDIGNVGSCYYMAMEYLPNGTLKERIQQGLDPEQGLAYVRQVAAALGYAHSQGLVHRDVKPANILFRADGTAVLSDFGIAKSIEDNTQFTQVGFAVGTPSYMSPEQARGQEIDGRADLYALGVVLYEILTGKLPYNGKDSLSTALAHLTEPLPELPIEQGRYQDILRQLLAKDPAERFPTAGALIAALDRLAPSALEATQIRPLATPQGSPRASNPPPAEPAPLPPADLGGLQPVSIQLPPVTPSAGGATPPPPPPSQAAKPPSPPPPPLPPAKPRAGGSRTPLIAAAAAAVLLAIGGGAWWLLGSGDAPSAADPAPLGQTPADKPQQQTPVADAEQDGGERPLLMPGKKTLFQRVLTKPGAAISAEAGGPPRAGAVPAFSVLYVYARKQVGGSPWLRVGASSNGEGDGWLPASAVSDWKQSLVLKFTERSGRAPVMFLNSAEQVERLLGDTRAARDTLTQAVDHKGDPQVVAVEPNDRAIPQDQFYLLPIFDSKESFDADGQPAQLLEVASIDPGGSAAAPQAPGQAGQGGASGAASDTFRTGIVLVVDTSVSMQPYIDRVREVIDGLQRQIGERGDLDKVSFGLVGFRNNTDKTPGLEYVSKTLVPLQPGNDAQRFAELSSQVRATDVSSHSFNEDAFAGIMQAVDEMDWSPYAGRVVLLVTDAGALRKNDPLGRTQMNEAEVRQAALRKGVKIYALHLRTPAGKNNHGYAEQQYRSLTADANPKIADLYIPVAGGEVNAFGNTVKEIGTVFADLVHDAGNRKPQAPRFDAAPSVASKSAAIGYAMQMEFLGRRDPVRAPQVVTAWTADRDLTNPALPAFQVCVLLSKLQLNELQQSLKLIVDAAKRTQTSPKDFFQEIASASAYMSRDPAQLVKGSNLAQSGVLGEYLEGLPYRSKSLNMTQDLWLSLSVAEQQDFIDELESKIRLYETFHNDVANWVRFGDADAGDALYRVPLSTLP”, the protein production is reported as “failed”.
With “MTDFQKQFFARLNIEEKQKVSFEDLSNIMYAMAQTVPFENLNVLEKNFKEISQENLKEKILVNNRGGLCYELNPTMYYFLKDAGFDVYLVSGTVYNAANSIWAVDSGHIATILKHHNELYLIEVGFGSYLPLAPVPFSGEVVQSVTGDYRIRKEMTEKGNYMLEMRKNDEFLDQSSTDDWTLGYAFYIEEVDEKKQMQHKKLLLNTMAHHLTKYLLL” the protein production was “failed”.
In the case of “ARRASAGELDAAVMHELAPLKMERAVFQTRITEGEPGPEGRDAVAFEVATNPGAPAGPLNRIASGGELSRFLLALKVCLRGDDGGKTMIFDEIDRGVGGATADAVGRRLEALAGAGQVLVVTHSPQVAARGVHHWRV”, the protein production is reported as “failed”.
For “TKDWKFTVSMNTAYNKNKIISLPYNGLPNNMQDAYQVYTGRKLADGTYERQWVGGYQEGQEYGVIYAFKSLGIYKSESEIPGNLIDRSTYTENGADAKVLYGPEAWAKLSDAEKEKGLPIQAGDVKWQDVNGDGVIDDYDRVKLGNTIPHWTGGFNINTSWKGLTLNCRLDYALGYWVHDWKTPWIMGNMQGTFNTISLVKDSWSESNPNGKYPVYGWADFLGKRNYDRISDINCYRGDYLAFREISLSYSLPQSWIHKSGLSKVDVSVTAQNLGYITAAKNMATPEYGVSQNGGYPLPRTVVLGLNVTF”, the protein production was “failed”.
In the case of “MDPSAPALDSAFWITTGAILLLLILSGFFSGSETALTAASRGKLRSQADKGSKGAQKALAITDDNERLIGSVLLGNNLVNILAASLATALFTRAFGESGVALATLVMTLLVLIFAEVLPKTYAITNSEKAAAAVAPIIGVVVMVFSPVVALVRLLVRGVLRLFGVRIDPDSHIMAVREEIAGALYLGHSEGVVEKEDRDRILGALDLAERTVEEIMLHRSNIVMLDADAEPETILEHCLQSPHTRLPVYRGEPENIIGVVHAKDLFRAMYAQVGGSEGHTARLKDFDISRVANAPYFVPETTTLDDQMRAFLRMRSHFALVVDEYGSLRGLITLEDILEEIVGEITDEFDPAAEMPVTRSDDGQFLVDGAMTIRDVNRAMDWSLPDDEANTVAGLVIHEAQMIPTVGQVFAFHGFRFEVTGREGNRITGLKIRPL”, the protein production is reported as “failed”.
In the case of “ILTTENQGVFTITLNRIDKKNALTNDMYKQLCQYFAYAEQTSSIHCVVIQGNEQCFCAGNDLHDFIQCSADDELAALAFVKVLSEFTKPLVAGVAGVAVGIGTTLLLHCDMVIAANNSKFKLPFTQLGLCPEAGSSLLLTQKVGPNKAFELMVLGQTFNAEQALSYGITNQTCQPDELLALTSDVAQAISNLPVESVMTSRRLIRQANKLALSQVISEESQAFSHLVKSEECKNILAKFFK”, the protein production is reported as “failed”.
For “MKVWPVKHSPLLRQPERFIARSELQALIRNVTQNLVNIKDESGQFLLRLDDGRVIDTKGWAGWEWTHGVGLYGIYQYYQQTGDIEMRDIIDRWFADRFAEGATTKNVNTMAPFLTLAYRFEETGRMAYLPWLESWAEWAMHEMPRTEQGGMQHMTLAEENHQQMWDDTLMMTVLPLAKIGKLLNRPQYVEEATYQFLLHVQNLMDRETGLWFHGWNYEGRHNFARARWARGNSWLTMVIPDFLELVDLPEGNAVRRYLITVLDAQIAALAECQDDSGLWHTLLDDPHSYLEASATAGFAYGILKAVRKRYVGQHYAGVAEKAIRGIVQNISPQGELLQTSFGTGMGSDLDFYRQIPLTSMPYGQAMAILCLTEYLRKYF”, the protein production was “not failed”.
For “MLCLHTSVHCYENPSVIFSLIYIIICKYMYYNILSATTIFILYSQIVGQNGDDIIKYYHSFLNYVIIFYMSRH”, the protein production was “failed”.
